Data taken from publication doi:10.1101/602425.

Biological target: GST-Rac1A, active (GTPγs-bound) (Dictyostelium) (UniProt P34144)
Test: pull-down

Substance: GFP-WASP (wild type Dictyostelium WASP) (natural protein)
- immunoblot quantification of binding (%): 1.9%
